Results on 2 molecules are retold here after publication PMC6265327, “Structure of DNA-CMG-Pol epsilon elucidates the roles of the non-catalytic polymerase modules in the eukaryotic replisome” (Nature Communications, 2018).

First the molecules themselves.
T1: Mcm5, subunit of the purified CMG (yeast (strains based on W303), UniProt P29496 1-775)
T1 construct: Mcm5, subunit of yeast CMG; The Mcm5 chain of m4; source: yeast overexpression strain yJCZ3, purified as part of CMG
T1 sequence: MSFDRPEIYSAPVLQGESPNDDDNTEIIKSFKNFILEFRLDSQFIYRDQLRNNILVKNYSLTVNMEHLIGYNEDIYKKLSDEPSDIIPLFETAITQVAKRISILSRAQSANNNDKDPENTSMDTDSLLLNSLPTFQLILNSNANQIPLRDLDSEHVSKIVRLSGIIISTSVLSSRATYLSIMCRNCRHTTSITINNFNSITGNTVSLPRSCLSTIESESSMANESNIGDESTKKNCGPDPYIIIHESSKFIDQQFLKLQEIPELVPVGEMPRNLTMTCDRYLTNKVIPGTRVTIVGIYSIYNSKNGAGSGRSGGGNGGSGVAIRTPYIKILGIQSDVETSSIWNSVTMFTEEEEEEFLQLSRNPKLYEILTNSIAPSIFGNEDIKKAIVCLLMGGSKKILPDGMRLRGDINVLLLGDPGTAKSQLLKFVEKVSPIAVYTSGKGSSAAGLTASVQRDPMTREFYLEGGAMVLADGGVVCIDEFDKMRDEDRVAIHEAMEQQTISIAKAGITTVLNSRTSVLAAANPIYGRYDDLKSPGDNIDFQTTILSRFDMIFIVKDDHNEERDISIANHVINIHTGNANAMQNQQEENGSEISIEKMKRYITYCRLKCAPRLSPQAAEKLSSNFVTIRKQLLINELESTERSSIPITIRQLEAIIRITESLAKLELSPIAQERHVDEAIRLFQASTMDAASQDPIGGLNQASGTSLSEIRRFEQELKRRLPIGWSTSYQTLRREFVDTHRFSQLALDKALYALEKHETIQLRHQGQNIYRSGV

B1: Dpb2, subunit of the CBP-tagged Pol epsilon complexes (deltacat and exo-) (natural protein, yeast (strains based on W303), UniProt P24482 1-689, looked up)
chain: MFGSGNVLPVKIQPPLLRPLAYRVLSRKYGLSIKSDGLSALAEFVGTNIGANWRQGPATIKFLEQFAAVWKQQERGLFIDQSGVKEVIQEMKEREKVEWSHEHPIQHEENILGRTDDDENNSDDEMPIAADSSLQNVSLSSPMRQPTERDEYKQPFKPESSKALDWRDYFKVINASQQQRFSYNPHKMQFIFVPNKKQNGLGGIAGFLPDIEDKVQMFLTRYYLTNDRVMRNENFQNSDMFNPLSSMVSLQNELSNTNRQQQSSSMSITPIKNLLGRDAQNFLLLGLLNKNFKGNWSLEDPSGSVEIDISQTIPTQGHYYVPGCMVLVEGIYYSVGNKFHVTSMTLPPGERREITLETIGNLDLLGIHGISNNNFIARLDKDLKIRLHLLEKELTDHKFVILGANLFLDDLKIMTALSKILQKLNDDPPTLLIWQGSFTSVPVFASMSSRNISSSTQFKNNFDALATLLSRFDNLTENTTMIFIPGPNDLWGSMVSLGASGTLPQDPIPSAFTKKINKVCKNVVWSSNPTRIAYLSQEIVIFRDDLSGRFKRHRLEFPFNESEDVYTENDNMMSKDTDIVPIDELVKEPDQLPQKVQETRKLVKTILDQGHLSPFLDSLRPISWDLDHTLTLCPIPSTMVLCDTTSAQFDLTYNGCKVINPGSFIHNRRARYMEYVPSSKKTIQEEIYI
notes: Dpb2, second largest subunit of yeast Pol epsilon; The complexes carry a CBP tag; The N-terminal domain is not seen in the deltacat map; also called NTD-Dpb2; CTD-Dpb2; source: yeast overexpression strain, galactose-induced; purified as part of Pol epsilon deltacat or exo- (calmodulin beads, Mono Q, gel filtration)
B2: Psf1, GINS subunit of the purified CMG (natural protein, yeast (strains based on W303))
chain: MYGDLGNKLVLEAKRTKQLYARSNQDVNLPMYHEDIIRNILKEVSNLRKNTEYLKEQQQLGMLDDKVAKCQYFVTLLCMERNKRCLLAYQRLRTDILDSMAWNNNGLDLMSSITFSQQDTNNLSHQEQEYLKEYCDLITDLKSGDLVDIDLSGSLVPPSDVFIDVRVLKDAGEIQTEYGVFNLIKDSQFFVRQSDVERLIQQGYLQKI
notes: Psf1, GINS subunit of yeast CMG; The Psf1 chain of m4; source: yeast overexpression strain yJCZ3, purified as part of CMG

Experiment in all cases: cryo-EM structure; 250 nM CMG bound to a desthiobiotin-labelled pre-formed DNA fork on streptavidin beads with 2 mM ATPgammaS, then 80 nM Pol epsilon exo-, 30 °C, eluted with biotin; no crosslinker; 4.9 Å
What all share (conditions): both partners purified

Test [1] has as its target T2, Mcm3, subunit of the purified CMG (yeast (strains based on W303), UniProt P24279 1-971).
T2 construct: Mcm3, subunit of yeast CMG; The Mcm3 chain of m4; source: yeast overexpression strain yJCZ3, purified as part of CMG

Test [2] has as its target T1, Mcm5, subunit of the purified CMG.
For test [3], the target named is B1.

T2 sequence (P24279 whole entry): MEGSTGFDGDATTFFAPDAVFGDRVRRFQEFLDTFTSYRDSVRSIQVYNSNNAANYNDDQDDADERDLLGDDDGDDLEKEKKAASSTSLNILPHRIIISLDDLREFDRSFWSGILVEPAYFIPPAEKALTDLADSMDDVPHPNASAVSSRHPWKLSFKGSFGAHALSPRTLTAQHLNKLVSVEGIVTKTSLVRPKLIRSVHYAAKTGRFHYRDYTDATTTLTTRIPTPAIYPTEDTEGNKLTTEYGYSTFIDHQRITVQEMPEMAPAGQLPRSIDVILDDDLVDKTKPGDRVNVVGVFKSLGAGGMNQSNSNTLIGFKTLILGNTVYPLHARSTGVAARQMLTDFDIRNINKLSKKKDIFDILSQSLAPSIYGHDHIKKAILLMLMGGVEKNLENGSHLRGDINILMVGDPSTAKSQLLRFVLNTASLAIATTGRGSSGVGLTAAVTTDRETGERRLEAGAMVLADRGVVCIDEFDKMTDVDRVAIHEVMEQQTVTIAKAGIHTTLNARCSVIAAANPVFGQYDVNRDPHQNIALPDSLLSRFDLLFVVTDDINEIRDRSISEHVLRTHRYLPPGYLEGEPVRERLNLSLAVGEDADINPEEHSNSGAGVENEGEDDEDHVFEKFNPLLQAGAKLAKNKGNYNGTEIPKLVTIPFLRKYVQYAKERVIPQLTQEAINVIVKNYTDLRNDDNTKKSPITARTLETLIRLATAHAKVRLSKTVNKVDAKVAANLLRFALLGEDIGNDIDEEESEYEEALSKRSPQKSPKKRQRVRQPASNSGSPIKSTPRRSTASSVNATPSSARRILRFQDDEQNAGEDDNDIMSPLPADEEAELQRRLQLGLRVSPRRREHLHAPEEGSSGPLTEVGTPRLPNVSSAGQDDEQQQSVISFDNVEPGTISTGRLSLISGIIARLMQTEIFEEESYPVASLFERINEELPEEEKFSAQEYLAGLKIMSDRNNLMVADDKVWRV

For the molecule B1, the binding result in test [1] and in test [2] was “binds” throughout.
B2: the binding result in test [3] was “binds”.
